The text below walks through data of publication PMC2723105, “DNA binding by Corynebacterium glutamicum TetR-type transcription regulator AmtR”.

Data set [1] addresses T1, AmtR-MBP wild type (Corynebacterium glutamicum ATCC13032) (UniProt H7C699).
T1 sequence: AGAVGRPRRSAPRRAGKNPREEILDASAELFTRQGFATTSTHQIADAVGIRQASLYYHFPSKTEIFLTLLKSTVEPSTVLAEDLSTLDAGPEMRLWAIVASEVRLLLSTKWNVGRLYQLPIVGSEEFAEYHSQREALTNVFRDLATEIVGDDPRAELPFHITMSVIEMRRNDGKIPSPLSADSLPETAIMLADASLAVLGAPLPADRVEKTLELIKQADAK
Kind of data set: EMSA. The note with it: EMSA: DIG gel shift kit (Roche) conditions, 0.04 ng DNA, native 6% PAGE in 0.5x TBE; SPR: HBS-EP running buffer, 25 °C, BIAcoreX, nonspecific 30-mer DNA in the ….

Data set [2] deals with T2, AmtR-MBP wild type (Corynebacterium glutamicum ATCC13032, UniProt H7C699 2-222).
T2 sequence: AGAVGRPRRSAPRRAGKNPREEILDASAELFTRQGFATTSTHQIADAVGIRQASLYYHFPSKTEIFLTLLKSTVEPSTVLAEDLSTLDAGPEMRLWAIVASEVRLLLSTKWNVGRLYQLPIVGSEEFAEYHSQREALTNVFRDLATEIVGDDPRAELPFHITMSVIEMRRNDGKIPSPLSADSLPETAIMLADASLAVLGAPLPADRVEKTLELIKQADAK
Kind of data set: EMSA. The conditions noted are these: EMSA: DIG gel shift kit (Roche) conditions, 0.04 ng DNA, native 6% PAGE in 0.5x TBE; SPR: HBS-EP running buffer, 25 °C, BIAcoreX, nonspecific 30-mer DNA in the …. A general note: In EMSA bound probe runs differently from free probe, usually more slowly.

Data set [3] concerns the target T2, AmtR-MBP wild type. The experiment in a line: SPR; EMSA: DIG gel shift kit (Roche) conditions, 0.04 ng DNA, native 6% PAGE in 0.5x TBE; SPR: HBS-EP running buffer, 25 °C, BIAcoreX, nonspecific 30-mer DNA in the. The note with it: protein: recombinant; tags: N-terminal MBP (pMalc2); chain copies: 2; label: 3' biotin on forward strand; blunt. (In general: SPR reads the build-up and loss of mass on a sensor chip optically.)

With “GCCCGTGGTGTGCTCACCAATGATGAAGTCGACGCGCTGACACAGGTGTGGACTTCCGCACTGAGCTTGCAGTCGAAACGTTGGATGGATCACATCCATGATCAAGAAACCACCGCTTGGGAGCTTCCCGCGCTGCAACGTGCCACTTTTGGCGCATCGGCTCGGTTGCTTTCTGAGGTGTTGCGGTCCGTTGAAGCCCGTGAAATCGATACCATAATAGGAACTCTG (double strand) [amtR upstream DNA, additional spacing nucleotide]”, the binding result in data set [1] is listed as “binds”.

For the molecule “GCTGGGCTAGAAACCCGATAAGCGAGAACCACCTGTCGGATGTTGTCTGGCAGGTGGTTTTCTTTTGCCTGGGTACCACCAAAAAGCAGCTGTGATGCACTTAACAATTCATTAAATTACCTGTTAAACTATAGAAAATATCCAAAACCCTCCAAAACCTATTCTATAGATCTATTGAAATTAGTTTCTGTAGGTCTATAGTTAGAGCTGGTTCAAGGGGTGTCAATCCCAAAAGGCACTCCTTGAACTCATGAAAAAGCTTGACAAAACTTCAACGTCAAAGGAGGTCATCCACGC (double strand) [amtB promoter PCR fragment]”, in data set [1], the Kd was 2400 nM.

Take amtB promoter PCR fragment: the Kd in the data set with AmtR-MBP wild type [2] came out at 2400 nM.

B1: amtBp SPR 30-mer (dsDNA)
DNA 1: TAAATTACCTGTTAAACTATAGAAAATATC
DNA 2: GATATTTTCTATAGTTTAACAGGTAATTTA
On to B1, for which the binding result in the data set with AmtR-MBP wild type [3] is given as “binds”.

By Kd is commonly meant the free concentration of one partner at which half of the binding sites on the other are occupied at equilibrium, for simple one-to-one binding.
